± gives the uncertainty stated by the source.

The first data set is described as follows: abundance fitness (aPCA) (normalised: wild type 0, dead -1); higher = more abundant; growth selection in yeast, the domain comes from the species named. The conditions noted are these: Homo sapiens.
“Transcription factor SOX-4 A121T, Q06945” displayed an abundance fitness of -0.009 ± 0.06.
“Transcription factor SOX-4 D102T, Q06945” registered an abundance fitness of -0.149 ± 0.05.
As for “Transcription factor SOX-4 D125N, Q06945”, the abundance fitness was -0.045 ± 0.22.
Still for that read-out and setting: with Transcription factor SOX-4 E79V, Q06945 the figure was -0.476 ± 0.13.
The substance Transcription factor SOX-4 E88V, Q06945 displayed an abundance fitness of -0.649 ± 0.066.
Take Transcription factor SOX-4 I72D, Q06945: the abundance fitness was -0.595 ± 0.46.
Still for that read-out and setting: with Transcription factor SOX-4 I77L, Q06945 the figure was -0.126 ± 0.055; with Transcription factor SOX-4 I89L, Q06945, -0.098 ± 0.036.
The substance “Transcription factor SOX-4 I106R, Q06945” yielded an abundance fitness of -0.209 ± 0.042.

Staying with this data set, now noted: Saccharomyces cerevisiae (strain ATCC 204508 / S288c).
For the substance “E3 ubiquitin-protein ligase RSP5 V360L, P39940”, the abundance fitness was -0.03 ± 0.044.
In turn, “E3 ubiquitin-protein ligase RSP5 V360M, P39940” came in with an abundance fitness of 0.022 ± 0.062.
Turning to “E3 ubiquitin-protein ligase RSP5 V360N, P39940”, the abundance fitness turned out to be 0.014 ± 0.093.
Turning to “E3 ubiquitin-protein ligase RSP5 V360P, P39940”, the abundance fitness is -0.871 ± 0.061.
The substance “E3 ubiquitin-protein ligase RSP5 V360Q, P39940” yielded an abundance fitness of -0.184 ± 0.15.
For “E3 ubiquitin-protein ligase RSP5 V360R, P39940”, the abundance fitness was -0.207 ± 0.041.
Consider “E3 ubiquitin-protein ligase RSP5 V360T, P39940”, for which the abundance fitness is -0.095 ± 0.064.
In turn, “E3 ubiquitin-protein ligase RSP5 V360W, P39940” had an abundance fitness of -0.06 ± 0.069.
For “E3 ubiquitin-protein ligase RSP5 V360Y, P39940”, the abundance fitness stood at 0.194 ± 0.084.
In the case of “E3 ubiquitin-protein ligase RSP5 W337A, P39940”, the abundance fitness is -0.649 ± 0.06.
For “E3 ubiquitin-protein ligase RSP5 W337C, P39940”, the abundance fitness was -0.4 ± 0.087.
In turn, “E3 ubiquitin-protein ligase RSP5 W337D, P39940” came in with an abundance fitness of -0.504 ± 0.074.
For the substance “E3 ubiquitin-protein ligase RSP5 W337E, P39940”, the abundance fitness was -0.525 ± 0.066.
In turn, “E3 ubiquitin-protein ligase RSP5 W337F, P39940” came in with an abundance fitness of -0.045 ± 0.093.
The substance “E3 ubiquitin-protein ligase RSP5 W337G, P39940” registered an abundance fitness of -0.503 ± 0.051.
The substance “E3 ubiquitin-protein ligase RSP5 W337H, P39940” yielded an abundance fitness of -0.539 ± 0.076.
“E3 ubiquitin-protein ligase RSP5 W337I, P39940” showed an abundance fitness of -0.23 ± 0.085.
The same measure, in the same setting: with “E3 ubiquitin-protein ligase RSP5 W337K, P39940” the figure was -0.713 ± 0.073.
With “E3 ubiquitin-protein ligase RSP5 W337L, P39940”, the abundance fitness was -0.53 ± 0.06.
In the case of “E3 ubiquitin-protein ligase RSP5 W337N, P39940”, the abundance fitness was -0.641 ± 0.14.
With “E3 ubiquitin-protein ligase RSP5 W337P, P39940”, the abundance fitness is -0.883 ± 0.061.
Take “E3 ubiquitin-protein ligase RSP5 W337Q, P39940”: the abundance fitness is -0.637 ± 0.11.
“E3 ubiquitin-protein ligase RSP5 W337R, P39940”: the abundance fitness was -0.771 ± 0.052.
The substance “E3 ubiquitin-protein ligase RSP5 W337S, P39940” came in with an abundance fitness of -0.622 ± 0.052.
Still for that read-out and setting: with “E3 ubiquitin-protein ligase RSP5 W337Y, P39940” the figure was -0.366 ± 0.1; with “E3 ubiquitin-protein ligase RSP5 W359C, P39940”, -0.336 ± 0.085.
As to “E3 ubiquitin-protein ligase RSP5 W359D, P39940”, the abundance fitness was -0.225 ± 0.059.
Still for that read-out and setting: with “E3 ubiquitin-protein ligase RSP5 W359E, P39940” the figure was -0.271 ± 0.071.
With “E3 ubiquitin-protein ligase RSP5 W359G, P39940”, the abundance fitness was -0.441 ± 0.045.
Same read-out and setting: with “E3 ubiquitin-protein ligase RSP5 W359I, P39940” the figure was -0.258 ± 0.1; with “E3 ubiquitin-protein ligase RSP5 W359K, P39940”, -0.446 ± 0.11.
Same read-out and setting: with “E3 ubiquitin-protein ligase RSP5 W359L, P39940” the figure was -0.203 ± 0.066.
Substance “E3 ubiquitin-protein ligase RSP5 W359N, P39940” returned an abundance fitness of -0.198 ± 0.091.
Turning to “E3 ubiquitin-protein ligase RSP5 W359P, P39940”, the abundance fitness is -0.447 ± 0.059.
Take “E3 ubiquitin-protein ligase RSP5 W359Q, P39940”: the abundance fitness is -0.278 ± 0.08.
Substance “E3 ubiquitin-protein ligase RSP5 W359R, P39940” returned an abundance fitness of -0.265 ± 0.067.
The same measure, in the same setting: with “E3 ubiquitin-protein ligase RSP5 W359S, P39940” the figure was -0.249 ± 0.049; with “E3 ubiquitin-protein ligase RSP5 W359T, P39940”, -0.342 ± 0.055; with “E3 ubiquitin-protein ligase RSP5 W359V, P39940”, -0.416 ± 0.045.
Take “E3 ubiquitin-protein ligase RSP5 W359Y, P39940”: the abundance fitness came out at 0.171 ± 0.08.
As for “E3 ubiquitin-protein ligase RSP5 Y348A, P39940”, the abundance fitness was -0.936 ± 0.073.
Turning to “E3 ubiquitin-protein ligase RSP5 Y348C, P39940”, the abundance fitness was -0.574 ± 0.09.
Consider “E3 ubiquitin-protein ligase RSP5 Y348D, P39940”, for which the abundance fitness was -0.879 ± 0.091.
The substance “E3 ubiquitin-protein ligase RSP5 Y348E, P39940” registered an abundance fitness of -0.664 ± 0.062.
Take “E3 ubiquitin-protein ligase RSP5 Y348F, P39940”: the abundance fitness was -0.146 ± 0.09.
The substance “E3 ubiquitin-protein ligase RSP5 Y348G, P39940” yielded an abundance fitness of -0.796 ± 0.043.
“E3 ubiquitin-protein ligase RSP5 Y348H, P39940” showed an abundance fitness of -0.699 ± 0.16.
Substance “E3 ubiquitin-protein ligase RSP5 Y348K, P39940” displayed an abundance fitness of -0.666 ± 0.072.
Take “E3 ubiquitin-protein ligase RSP5 Y348L, P39940”: the abundance fitness is -0.504 ± 0.068.
The substance “E3 ubiquitin-protein ligase RSP5 Y348M, P39940” gave an abundance fitness of -0.354 ± 0.092.
“E3 ubiquitin-protein ligase RSP5 Y348P, P39940” registered an abundance fitness of -1.17 ± 0.086.
As for “E3 ubiquitin-protein ligase RSP5 Y348Q, P39940”, the abundance fitness was -0.637 ± 0.054.
Regarding “E3 ubiquitin-protein ligase RSP5 Y348R, P39940”, the abundance fitness was -0.919 ± 0.049.
“E3 ubiquitin-protein ligase RSP5 Y348S, P39940” came in with an abundance fitness of -0.738 ± 0.077.
Consider “E3 ubiquitin-protein ligase RSP5 Y348T, P39940”, for which the abundance fitness is -0.686 ± 0.087.
In turn, “E3 ubiquitin-protein ligase RSP5 Y348V, P39940” had an abundance fitness of -0.585 ± 0.048.
On the same count and under the same terms, with “E3 ubiquitin-protein ligase RSP5 Y348W, P39940” the figure was -0.147 ± 0.049.

The values above are taken from the Human Domainome abundance scans (Beltran et al. 2025).
